Reference: patent US20200123228A1
Like-named read-outs stand apart in the source and are kept apart here.

Columns and labels:
[1] = biological target: rmCTLA4 (mouse) (UniProt P09793); experiment: ELISA
[2] = biological target: rmCTLA4 (mouse) (UniProt P09793); experiment: ELISA; remark: listed apart in the source
[3] = biological target: bovine collagen (Symatese), polymerized gel (bovine); experiment: retention on polymerized bovine collagen gel, antibody loaded at 10 µg/mL, released antibody measured by ELISA
[4] = biological target: Fibronectin (human) (UniProt P02751); experiment: ELISA
[5] = biological target: Collagen I (human) (UniProt P02452); experiment: ELISA
[6] = biological target: rmCTLA4 (mouse) (UniProt P09793); experiment: ELISA; remark: listed apart in the source

Chain of rmCTLA4 (mouse) (P09793 36-162): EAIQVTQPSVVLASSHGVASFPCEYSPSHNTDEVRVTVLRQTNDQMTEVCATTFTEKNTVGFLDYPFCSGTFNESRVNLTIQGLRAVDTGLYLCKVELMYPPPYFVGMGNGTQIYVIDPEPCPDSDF
Chain of Fibronectin (human) (P02751 32-2477): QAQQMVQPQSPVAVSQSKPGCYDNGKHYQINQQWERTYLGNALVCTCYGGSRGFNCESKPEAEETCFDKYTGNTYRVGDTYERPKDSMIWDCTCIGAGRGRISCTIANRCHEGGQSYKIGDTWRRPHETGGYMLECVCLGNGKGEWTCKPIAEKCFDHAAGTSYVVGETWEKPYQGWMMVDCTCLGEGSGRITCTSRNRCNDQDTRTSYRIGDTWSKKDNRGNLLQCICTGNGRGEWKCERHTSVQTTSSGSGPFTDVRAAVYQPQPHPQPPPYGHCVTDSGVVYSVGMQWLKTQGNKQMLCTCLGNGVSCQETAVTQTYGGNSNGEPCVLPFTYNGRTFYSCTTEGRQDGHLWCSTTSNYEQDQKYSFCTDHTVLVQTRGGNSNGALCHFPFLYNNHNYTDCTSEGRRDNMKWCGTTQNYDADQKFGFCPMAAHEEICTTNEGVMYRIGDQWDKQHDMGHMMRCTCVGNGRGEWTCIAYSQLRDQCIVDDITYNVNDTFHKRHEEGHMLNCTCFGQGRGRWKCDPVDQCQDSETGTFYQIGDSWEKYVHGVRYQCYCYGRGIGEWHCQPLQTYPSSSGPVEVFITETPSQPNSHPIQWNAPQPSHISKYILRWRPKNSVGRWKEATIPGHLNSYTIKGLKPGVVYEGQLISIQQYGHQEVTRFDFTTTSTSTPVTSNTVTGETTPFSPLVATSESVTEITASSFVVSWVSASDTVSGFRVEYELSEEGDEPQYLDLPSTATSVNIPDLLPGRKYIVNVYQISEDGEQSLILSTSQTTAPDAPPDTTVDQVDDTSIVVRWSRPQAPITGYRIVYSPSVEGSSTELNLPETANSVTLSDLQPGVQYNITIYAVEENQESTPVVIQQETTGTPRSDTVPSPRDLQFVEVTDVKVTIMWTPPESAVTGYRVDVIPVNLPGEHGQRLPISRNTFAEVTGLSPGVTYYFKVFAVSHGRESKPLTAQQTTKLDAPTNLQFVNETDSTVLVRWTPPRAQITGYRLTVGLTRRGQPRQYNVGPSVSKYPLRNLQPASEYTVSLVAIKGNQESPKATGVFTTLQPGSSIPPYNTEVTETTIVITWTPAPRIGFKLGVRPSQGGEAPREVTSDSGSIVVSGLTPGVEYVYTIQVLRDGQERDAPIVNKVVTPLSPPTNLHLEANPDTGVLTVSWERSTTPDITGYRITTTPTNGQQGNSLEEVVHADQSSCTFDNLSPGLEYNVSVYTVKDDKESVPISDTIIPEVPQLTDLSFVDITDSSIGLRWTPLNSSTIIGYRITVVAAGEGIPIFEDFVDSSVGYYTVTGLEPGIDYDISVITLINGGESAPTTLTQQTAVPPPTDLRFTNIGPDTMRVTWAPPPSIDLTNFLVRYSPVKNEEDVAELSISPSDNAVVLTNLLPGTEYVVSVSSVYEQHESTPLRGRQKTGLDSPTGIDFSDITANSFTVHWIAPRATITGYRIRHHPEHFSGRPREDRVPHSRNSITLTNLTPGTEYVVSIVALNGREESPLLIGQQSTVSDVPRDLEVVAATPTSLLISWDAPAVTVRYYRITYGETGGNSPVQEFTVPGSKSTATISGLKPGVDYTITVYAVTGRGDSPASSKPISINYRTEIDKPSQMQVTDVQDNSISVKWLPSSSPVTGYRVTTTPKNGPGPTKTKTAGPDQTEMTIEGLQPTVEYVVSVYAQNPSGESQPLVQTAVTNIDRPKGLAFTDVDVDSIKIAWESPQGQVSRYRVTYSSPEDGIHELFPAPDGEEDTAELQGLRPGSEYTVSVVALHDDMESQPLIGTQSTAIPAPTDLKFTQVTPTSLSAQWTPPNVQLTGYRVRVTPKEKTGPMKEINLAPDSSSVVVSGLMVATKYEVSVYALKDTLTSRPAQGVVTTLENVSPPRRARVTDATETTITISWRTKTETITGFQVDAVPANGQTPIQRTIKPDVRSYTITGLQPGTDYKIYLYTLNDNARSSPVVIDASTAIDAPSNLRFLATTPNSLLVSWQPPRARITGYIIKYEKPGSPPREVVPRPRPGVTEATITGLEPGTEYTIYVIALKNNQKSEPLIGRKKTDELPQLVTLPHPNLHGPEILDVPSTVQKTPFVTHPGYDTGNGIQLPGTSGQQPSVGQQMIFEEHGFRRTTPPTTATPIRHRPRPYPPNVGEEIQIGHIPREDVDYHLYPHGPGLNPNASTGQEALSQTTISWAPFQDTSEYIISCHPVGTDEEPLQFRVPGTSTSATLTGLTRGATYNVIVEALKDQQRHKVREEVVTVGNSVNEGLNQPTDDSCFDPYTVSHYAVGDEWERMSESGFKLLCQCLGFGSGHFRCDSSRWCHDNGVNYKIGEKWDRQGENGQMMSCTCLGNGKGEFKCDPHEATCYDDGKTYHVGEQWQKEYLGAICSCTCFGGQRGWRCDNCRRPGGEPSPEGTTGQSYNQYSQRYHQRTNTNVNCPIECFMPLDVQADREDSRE
Chain of Collagen I (human) (P02452 162-1218, chain 1 of 2): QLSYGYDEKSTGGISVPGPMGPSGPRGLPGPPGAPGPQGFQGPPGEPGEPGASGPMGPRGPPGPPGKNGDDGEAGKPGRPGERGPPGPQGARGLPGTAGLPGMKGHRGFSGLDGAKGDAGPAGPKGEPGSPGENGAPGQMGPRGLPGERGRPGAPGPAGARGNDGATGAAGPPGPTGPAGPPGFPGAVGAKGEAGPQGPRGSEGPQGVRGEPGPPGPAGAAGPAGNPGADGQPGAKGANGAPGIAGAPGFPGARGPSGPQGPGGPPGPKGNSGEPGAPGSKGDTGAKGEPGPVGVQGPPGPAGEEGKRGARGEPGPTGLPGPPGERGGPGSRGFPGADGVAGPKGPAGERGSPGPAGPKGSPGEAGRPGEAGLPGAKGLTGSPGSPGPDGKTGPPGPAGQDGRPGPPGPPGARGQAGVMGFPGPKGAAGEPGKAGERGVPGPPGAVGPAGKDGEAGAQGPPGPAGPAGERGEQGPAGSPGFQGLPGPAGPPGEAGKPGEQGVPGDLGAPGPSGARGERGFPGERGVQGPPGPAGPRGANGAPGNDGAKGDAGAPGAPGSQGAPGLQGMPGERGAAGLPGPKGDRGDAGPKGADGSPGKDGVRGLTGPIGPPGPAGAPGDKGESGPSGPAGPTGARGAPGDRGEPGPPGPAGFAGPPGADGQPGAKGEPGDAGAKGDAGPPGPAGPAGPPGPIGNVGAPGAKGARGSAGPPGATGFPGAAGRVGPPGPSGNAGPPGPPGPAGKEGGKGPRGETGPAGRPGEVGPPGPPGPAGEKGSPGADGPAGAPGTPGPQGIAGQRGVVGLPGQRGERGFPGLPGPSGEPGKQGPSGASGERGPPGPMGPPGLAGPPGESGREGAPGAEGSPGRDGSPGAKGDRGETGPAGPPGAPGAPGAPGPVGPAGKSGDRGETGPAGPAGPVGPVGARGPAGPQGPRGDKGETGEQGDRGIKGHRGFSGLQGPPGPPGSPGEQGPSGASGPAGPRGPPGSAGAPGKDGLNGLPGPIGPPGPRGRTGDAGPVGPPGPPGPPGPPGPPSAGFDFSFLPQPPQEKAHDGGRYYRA
Chain of Collagen I (human) (P08123 80-1119, chain 2 of 2, further chain): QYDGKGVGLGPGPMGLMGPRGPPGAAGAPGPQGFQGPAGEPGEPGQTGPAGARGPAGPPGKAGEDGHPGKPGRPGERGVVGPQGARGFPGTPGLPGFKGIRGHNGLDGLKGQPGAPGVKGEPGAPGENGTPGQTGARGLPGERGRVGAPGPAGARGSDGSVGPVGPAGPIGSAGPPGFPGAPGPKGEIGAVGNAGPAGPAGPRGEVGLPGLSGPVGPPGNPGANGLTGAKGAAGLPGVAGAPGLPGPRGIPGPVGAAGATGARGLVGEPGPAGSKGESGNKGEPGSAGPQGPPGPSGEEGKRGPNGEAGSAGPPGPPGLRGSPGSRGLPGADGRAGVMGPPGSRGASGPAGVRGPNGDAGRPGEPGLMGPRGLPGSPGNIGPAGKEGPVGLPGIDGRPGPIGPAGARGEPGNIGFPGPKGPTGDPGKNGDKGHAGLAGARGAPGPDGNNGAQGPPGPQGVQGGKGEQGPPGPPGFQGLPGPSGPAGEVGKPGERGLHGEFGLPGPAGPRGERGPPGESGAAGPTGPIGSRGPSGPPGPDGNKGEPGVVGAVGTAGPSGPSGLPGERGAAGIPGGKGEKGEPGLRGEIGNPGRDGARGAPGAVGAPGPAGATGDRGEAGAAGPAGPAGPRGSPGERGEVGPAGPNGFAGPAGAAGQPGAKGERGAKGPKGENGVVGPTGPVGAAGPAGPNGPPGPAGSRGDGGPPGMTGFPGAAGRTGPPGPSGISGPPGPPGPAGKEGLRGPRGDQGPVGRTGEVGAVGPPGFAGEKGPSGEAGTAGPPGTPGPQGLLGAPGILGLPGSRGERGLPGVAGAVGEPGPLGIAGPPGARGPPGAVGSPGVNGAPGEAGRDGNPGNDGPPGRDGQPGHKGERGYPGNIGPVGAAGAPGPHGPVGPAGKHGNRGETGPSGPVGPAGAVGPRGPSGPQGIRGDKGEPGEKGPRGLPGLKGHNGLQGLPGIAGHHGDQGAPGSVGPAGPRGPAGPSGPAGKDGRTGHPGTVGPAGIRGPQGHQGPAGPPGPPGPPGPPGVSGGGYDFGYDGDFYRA

Row | Substance | Kd [1] | Kd [2] | % of antibody released by plasmin digestion after buffer changes [3] | Kd [4] | Kd [5] | Kd [6]
1 | 9H10 | 15 nM |  |  |  |  | 
2 | rat anti-mouse PD-L1 (clone 10F.9G2), wild-type (antibody) |  |  | < 0.1% |  |  | 

More lines, in order of falling Kd [1], values ahead:

Row | Kd [1] | Kd [2] | % of antibody released by plasmin digestion after buffer changes [3] | Kd [4] | Kd [5] | Kd [6] | Substance
3 | 5.7 nM |  |  | 0.87 nM | 1.3 nM |  | PlGF-2123-144-9H10
4 | 0.16 nM |  |  | 4.7 nM | 26.7 nM | 0.157 nM | PlGF-2123-144-4F10
5 | 0.101 nM | 0.1 nM |  |  |  |  | 4F10
